Measured values: publication PMC314469, “Protein Interaction Networks by Proteome Peptide Scanning” (PLoS Biology, 2004)

B1: Q9NQ53 317-330 (peptide)
chain: LAHVLRRPIVVVAD
B2: Q96KY5 32-45 (peptide)
chain: LAITLRRPGSELEA
B3: P41440 199-212 (peptide)
chain: LALFLKRPKRSLFF
B4: P07996 308-321 (peptide)
chain: LANELRRPPLSYHN
B5: O43379 748-761 (peptide)
chain: LAQPLRRPSSVGEL
B6: Q15678 740-754 (peptide)
chain: LARIPNKPPPEYPG
B7: O94836 267-281 (peptide)
chain: LASRPTRPPEPRHI
B8: P12270 638-651 (peptide)
chain: LASTPKRPSTSQTV
B9: P16144 1316-1329 (peptide)
chain: LATQPKRPMSIPII
B10: Q96SL1 246-260 (peptide)
chain: LAYFPPRPPLPPSV
B11: Q9HA29 107-120 (peptide)
chain: APEALPRPRREGEL
B12: Q9UFP1 189-202 (peptide)
chain: LSGLIKRPGDLPEV
B13: P27539 244-257 (peptide)
chain: LSHPLARPRRDAEP
B14: Q9C000 828-841 (peptide)
chain: LSKTLRRPRSLLET
B15: P21580 199-212 (peptide)
chain: LSNILRRPIIVISD
B16: Q9HBF6 199-212 (peptide)
chain: LSQDLIRPIRKTGT
B17: O75086 179-192 (peptide)
chain: AAPLLRRPHGGAGP
B18: Q9Y6D4 264-277 (peptide)
chain: LSYSLYRPRKYLYV
B19: Q01970 912-926 (peptide)
chain: LDASPRRPPGPTTS
B20: Q9UQ90 461-474 (peptide)
chain: LDGALMRPGRLDRH
B21: Q8WWL8 44-57 (peptide)
chain: LDMALRRPPRLRLS
B22: Q9Y2Q2 234-247 (peptide)
chain: LDNALIRPGRFDMQ
B23: O14897 560-573 (peptide)
chain: APELLKRPKEYTVR
B24: Q03527 337-350 (peptide)
chain: LDPALIRPGRIDRK
B25: Q13608 854-867 (peptide)
chain: LDPALLRPGRFDKL
B26: Q9Y4W6 459-472 (peptide)
chain: LDPALLRPGRFDRQ
B27: P43686 317-330 (peptide)
chain: LDPALLRPGRLDRK
B28: O43931 13-26 (peptide)
chain: LDPALMRPGRFHRQ
B29: P35998 327-340 (peptide)
chain: LDPALMRPGRLDRK
B30: Q9HA41 350-363 (peptide)
chain: LDPALRRPGRFDRE
B31: O15047 30-43 (peptide)
chain: LDPALRRPSQKVYR
B32: BAC04326 52-66 (peptide)
chain: LDPLPRRPPAGRRG
B33: P47210 301-314 (peptide)
chain: LDSALLRPGRIDRK
B34: Q96NP9 14-28 (peptide)
chain: APEPPPRPPPALSP
B35: Q9Y5K1 339-352 (peptide)
chain: LDSILRRPYVTSQP
B36: P51858 162-175 (peptide)
chain: LEDSPKRPKEAENP
B37: Q9P239 478-492 (peptide)
chain: LEESPWKPPTYLFS
B38: O00513 852-865 (peptide)
chain: LEFPPRRPFARRRM
B39: Q96F28 217-231 (peptide)
chain: LEIPPPKPPAPEMN
B40: Q8WXI9 364-378 (peptide)
chain: LEIPPPKPPAPLLH
B41: Q9ULJ3 268-281 (peptide)
chain: LELALKRPRPPVLS
B42: Q8WVX9 331-344 (peptide)
chain: LEQAFRRPNVNLTS

Assays:
[1] = target: endophilin SH3 (SH3G2_HUMAN), Q99962; experiment: SPOT array
[2] = target: T1, amphyphisin SH3 (AMPH_HUMAN), P49418; experiment: SPOT array
T1 chain: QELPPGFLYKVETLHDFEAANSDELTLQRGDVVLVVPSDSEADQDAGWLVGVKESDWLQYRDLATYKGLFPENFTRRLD

Binder | normalised SPOT signal, Boehringer light units (BLU); mean over the file's lines of this peptide [1] | normalised SPOT signal, Boehringer light units (BLU); mean over the file's lines of this peptide [2]
B1 | 37.7 | 37.4
B2 | 27.9 | 16
B3 | 838 | 2280
B4 | 173 | 34.3
B5 | 45.3 | 37.1
B6 | 20.4 | 30.4
B7 | 22900 | 1090
B8 | 78 | 32
B9 | 660 | 23.2
B10 | 2170 | 48.7
B11 | 318 | 708
B12 | 49.5 | 21.9
B13 | 405 | 984
B14 | 51.9 | 32.3
B15 | 84.4 | 26
B16 | 276 | 1840
B17 | 102 | 25.6
B18 | 288 | 137
B19 | 1090 | 210
B20 | 1590 | 1540
B21 | 1210 | 4180

Binder | normalised SPOT signal, Boehringer light units (BLU); mean over the file's lines of this peptide [1] | normalised SPOT signal, Boehringer light units (BLU); mean over the file's lines of this peptide [2]
B22 | 80.5 | 240
B23 | 29.7 | 28
B24 | 75.3 | 4590
B25 | 0 | 944
B26 | 139 | 806
B27 | 123 | 2030
B28 | 311 | 2880
B29 | 346 | 4700
B30 | 159 | 666
B31 | 108 | 37.6
B32 | 4540 | 1100
B33 | 117 | 1620
B34 | 2330 | 962
B35 | 54.4 | 10.6
B36 | 2.6 | 12.6
B37 | 53.3 | 39.8
B38 | 3050 | 241
B39 | 43.4 | 31.6
B40 | 712 | 36.7
B41 | 129 | 29.6
B42 | 42.5 | 43.1
